For orientation: koff means a measure of how fast the partners let go of each other. Read a low koff as slow dissociation.

The target of assay [1] is CD3 on Jurkat cells (UniProt P07766). Nature of the assay: flow cytometry, culture supernatant on Jurkat cells (negative control).
The target is the same in assay [2]. Nature of the assay: flow cytometry, culture supernatant on Jurkat cells. Background: In flow cytometry, cells or beads pass a laser one at a time.
Assay [3] deals with T1, CD3-His蛋白(MP-5) (UniProt P07766 23-126).
T1 construct: Immunogen and panning antigen; the construct is not defined; also called CD3蛋白; not shown: His tag
T1 sequence (P07766 23-126): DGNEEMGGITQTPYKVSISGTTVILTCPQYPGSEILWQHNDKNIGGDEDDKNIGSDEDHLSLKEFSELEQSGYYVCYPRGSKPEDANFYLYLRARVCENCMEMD
Nature of the assay: BLI (Octet RED96), off-rate screening; sdAb-SASA from expression medium captured on BSA-coated biosensor, 100 nM CD3 in solution, 1:1 Langmuir fit, 30°C. On the technique in general: Biolayer interferometry detects binding as a change in optical thickness at a sensor tip.

Where a chain is given by its changes, count along the chain named.

In turn, NC-sdAb (VHH) registered an MFI in assay [1] of 115.

B1: A30228 (VHH)
VHH: QVKLEESGGGLVQAGDSLTLSCAASGRTFDTMGWFRQAPGKEREFVAAVRWSSGNTYYGNTVKGRFTISRDTATNTVYLEMNSLKHEDTAVYYCAARLAGRGAADHWGQGTQVTVSS
notes: Llama sdAb from a phage display library; Tested as sdAb-SASA protein in E. coli expression medium / culture supernatant (FASEBA format), not purified; 1; also called 抗CD3单域抗体; sdAb; not shown: SASA fusion partner of the pFASEBA vector (sdAb-SASA protein)
On to B1, for which, in assay [2], the MFI was found to be 240. The same molecule came in with a dissociation rate constant (koff) in assay [3] of 7.61e-05 s⁻¹.

B2: A30311 (VHH)
VHH: B1 VHH with D16G, T19R, E80Q, A99G
notes: Llama sdAb from a phage display library; Tested as sdAb-SASA protein in E. coli expression medium / culture supernatant (FASEBA format), not purified; 3; also called 抗CD3单域抗体; sdAb; not shown: SASA fusion partner of the pFASEBA vector (sdAb-SASA protein)
B2: the MFI in assay [2] is 299. Further, the koff in assay [3] worked out at 0.000153 s⁻¹.

For the origin of these results see patent CN106117358A (UNIV SUN YAT SEN, dated 2016).
